This note sets out measurements from publication PMC9351484.

Several values for one entry are separate records, joined by “and”; a condition that tells them apart may be missing. Identical values can stand only once.

In one data set the target is TPP1 (human). Nature of the data set: native MS.
In data set [1] the target is TRF1 (human) (UniProt P54274). Briefly: mass photometry.
Data set [2] deals with TRF2/Rap1 complex (human) (UniProt Q9NYB0). Briefly: co-sedimentation + other: mass photometry.
TRF2/Rap1 complex (human), sequence (Q9NYB0 whole entry, looked up, one chain of several): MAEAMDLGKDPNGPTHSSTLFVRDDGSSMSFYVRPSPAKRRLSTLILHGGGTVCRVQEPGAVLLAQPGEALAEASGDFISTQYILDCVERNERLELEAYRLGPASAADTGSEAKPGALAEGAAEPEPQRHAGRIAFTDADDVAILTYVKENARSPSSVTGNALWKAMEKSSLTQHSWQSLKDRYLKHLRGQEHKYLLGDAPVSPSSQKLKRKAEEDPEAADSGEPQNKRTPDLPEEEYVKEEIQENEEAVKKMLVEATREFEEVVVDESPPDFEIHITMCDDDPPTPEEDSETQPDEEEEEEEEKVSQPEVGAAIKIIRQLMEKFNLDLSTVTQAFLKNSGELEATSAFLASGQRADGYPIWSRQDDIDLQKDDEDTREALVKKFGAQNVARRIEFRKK
For data set [3], the target named is TRF1 (human) (UniProt P54274). Briefly: native MS.
Target sequence in this assay (P54274 whole entry): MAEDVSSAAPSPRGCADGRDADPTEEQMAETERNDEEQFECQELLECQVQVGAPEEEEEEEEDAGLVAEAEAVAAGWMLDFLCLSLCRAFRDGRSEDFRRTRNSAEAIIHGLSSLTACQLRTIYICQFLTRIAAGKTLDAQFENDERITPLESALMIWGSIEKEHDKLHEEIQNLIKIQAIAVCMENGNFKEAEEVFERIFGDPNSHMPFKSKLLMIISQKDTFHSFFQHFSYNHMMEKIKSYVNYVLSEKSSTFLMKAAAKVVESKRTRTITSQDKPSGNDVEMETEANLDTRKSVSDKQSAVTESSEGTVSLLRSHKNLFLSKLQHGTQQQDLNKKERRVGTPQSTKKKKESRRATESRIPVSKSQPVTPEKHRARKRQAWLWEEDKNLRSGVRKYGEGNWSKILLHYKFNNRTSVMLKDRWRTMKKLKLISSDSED
Data set [4] deals with TRF2/His6MBP-Rap1 complex (human) (UniProt Q9NYB0). Nature of the data set: pull-down + other: mass photometry.
TRF2/His6MBP-Rap1 complex (human), sequence (Q9NYB0 whole entry, looked up, one chain of several): as the sequence (Q9NYB0 whole entry, looked up, one chain of several) above
Another data set concerns the target POT1 (human) (UniProt Q9NUX5). Nature of the data set: native MS.
Data set [5] deals with T1, POT1;TPP1N (human;human, UniProt Q9NUX5;Q96AP0 1-634;1-251, |). Briefly: size-exclusion chromatography and negative-stain EM. A general note: In gel filtration, larger molecules generally elute earlier.
T1 sequence (Q9NUX5 whole entry, chain 1 of 2): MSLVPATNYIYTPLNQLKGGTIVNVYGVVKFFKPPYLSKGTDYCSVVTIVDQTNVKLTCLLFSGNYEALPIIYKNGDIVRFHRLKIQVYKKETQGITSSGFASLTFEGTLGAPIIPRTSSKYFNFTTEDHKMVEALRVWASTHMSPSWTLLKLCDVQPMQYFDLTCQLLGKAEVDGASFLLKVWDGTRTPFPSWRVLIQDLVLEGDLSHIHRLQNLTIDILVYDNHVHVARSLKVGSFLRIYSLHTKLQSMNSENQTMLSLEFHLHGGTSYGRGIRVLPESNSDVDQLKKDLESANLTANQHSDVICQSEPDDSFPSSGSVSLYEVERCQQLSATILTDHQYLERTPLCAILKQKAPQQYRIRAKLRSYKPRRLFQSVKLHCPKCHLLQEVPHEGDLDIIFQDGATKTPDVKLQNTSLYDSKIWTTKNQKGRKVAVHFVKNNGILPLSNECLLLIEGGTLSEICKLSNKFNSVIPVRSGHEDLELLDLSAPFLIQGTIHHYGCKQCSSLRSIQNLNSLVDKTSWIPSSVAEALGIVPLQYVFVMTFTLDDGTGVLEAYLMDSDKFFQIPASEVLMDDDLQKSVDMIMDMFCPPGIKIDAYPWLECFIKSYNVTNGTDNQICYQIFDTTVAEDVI
T1 sequence (Q96AP0 1-251, chain 2 of 2): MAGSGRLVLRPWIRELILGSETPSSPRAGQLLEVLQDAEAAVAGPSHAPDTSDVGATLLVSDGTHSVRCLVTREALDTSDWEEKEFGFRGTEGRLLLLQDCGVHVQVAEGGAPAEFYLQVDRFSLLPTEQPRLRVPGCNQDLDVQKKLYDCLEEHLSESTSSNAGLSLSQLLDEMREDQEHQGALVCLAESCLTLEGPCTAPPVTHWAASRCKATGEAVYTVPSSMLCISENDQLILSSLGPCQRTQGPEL
For a further data set, the target named is POT1;TPP1;GFP-TIN2 (human;human;human, UniProt Q9NUX5;Q96AP0;Q9BSI4-2 1-634;1-458;1-352, ||). Nature of the data set: negative-stain EM.
POT1;TPP1;GFP-TIN2, sequence (Q9NUX5 whole entry, chain 1 of 3): as the sequence (Q9NUX5 whole entry, chain 1 of 2) above
POT1;TPP1;GFP-TIN2, sequence (Q96AP0 whole entry, chain 2 of 3): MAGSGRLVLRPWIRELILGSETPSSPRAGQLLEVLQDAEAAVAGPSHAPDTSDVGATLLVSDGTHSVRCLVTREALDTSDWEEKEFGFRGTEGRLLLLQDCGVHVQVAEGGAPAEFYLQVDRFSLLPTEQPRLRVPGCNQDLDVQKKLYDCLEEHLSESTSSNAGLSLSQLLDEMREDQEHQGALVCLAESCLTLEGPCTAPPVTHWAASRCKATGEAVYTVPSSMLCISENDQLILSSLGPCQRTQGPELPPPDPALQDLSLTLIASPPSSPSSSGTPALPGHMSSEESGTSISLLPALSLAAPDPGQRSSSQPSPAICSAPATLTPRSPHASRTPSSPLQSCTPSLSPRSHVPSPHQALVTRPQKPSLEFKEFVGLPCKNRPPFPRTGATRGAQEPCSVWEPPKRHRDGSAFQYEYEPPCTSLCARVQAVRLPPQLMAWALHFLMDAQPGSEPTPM
POT1;TPP1;GFP-TIN2, sequence (Q9BSI4 1-352, chain 3 of 3): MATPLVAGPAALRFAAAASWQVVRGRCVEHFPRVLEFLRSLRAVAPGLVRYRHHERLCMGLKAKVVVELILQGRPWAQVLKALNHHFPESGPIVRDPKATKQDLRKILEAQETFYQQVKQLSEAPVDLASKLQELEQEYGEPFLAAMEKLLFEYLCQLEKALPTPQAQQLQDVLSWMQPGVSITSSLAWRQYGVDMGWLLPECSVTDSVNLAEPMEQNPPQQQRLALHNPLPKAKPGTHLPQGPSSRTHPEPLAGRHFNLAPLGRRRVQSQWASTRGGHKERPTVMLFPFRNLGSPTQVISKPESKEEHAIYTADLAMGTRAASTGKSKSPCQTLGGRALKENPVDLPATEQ
For data set [6], the target named is T1, POT1;TPP1N. Briefly: negative-stain EM.

POT1/TPP1/GFP-TIN2 complex, sequence (Q9NUX5 whole entry, looked up, one chain of several): as the sequence (Q9NUX5 whole entry, chain 1 of 2) above
GFP-TIN2 (natural protein), sequence (Q9BSI4 2-451): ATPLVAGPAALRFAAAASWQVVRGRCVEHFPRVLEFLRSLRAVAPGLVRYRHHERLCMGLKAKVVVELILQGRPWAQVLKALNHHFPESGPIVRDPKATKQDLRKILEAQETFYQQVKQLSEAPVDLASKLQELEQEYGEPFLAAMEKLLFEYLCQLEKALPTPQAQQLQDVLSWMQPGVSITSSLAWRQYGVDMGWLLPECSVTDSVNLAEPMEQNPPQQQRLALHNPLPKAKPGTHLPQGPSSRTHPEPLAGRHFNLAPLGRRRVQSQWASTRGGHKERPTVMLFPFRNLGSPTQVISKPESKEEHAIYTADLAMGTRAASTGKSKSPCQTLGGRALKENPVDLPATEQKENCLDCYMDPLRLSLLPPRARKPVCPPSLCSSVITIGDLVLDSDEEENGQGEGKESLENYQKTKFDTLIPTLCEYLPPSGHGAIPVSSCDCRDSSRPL
TRF1, sequence (P54274 2-439): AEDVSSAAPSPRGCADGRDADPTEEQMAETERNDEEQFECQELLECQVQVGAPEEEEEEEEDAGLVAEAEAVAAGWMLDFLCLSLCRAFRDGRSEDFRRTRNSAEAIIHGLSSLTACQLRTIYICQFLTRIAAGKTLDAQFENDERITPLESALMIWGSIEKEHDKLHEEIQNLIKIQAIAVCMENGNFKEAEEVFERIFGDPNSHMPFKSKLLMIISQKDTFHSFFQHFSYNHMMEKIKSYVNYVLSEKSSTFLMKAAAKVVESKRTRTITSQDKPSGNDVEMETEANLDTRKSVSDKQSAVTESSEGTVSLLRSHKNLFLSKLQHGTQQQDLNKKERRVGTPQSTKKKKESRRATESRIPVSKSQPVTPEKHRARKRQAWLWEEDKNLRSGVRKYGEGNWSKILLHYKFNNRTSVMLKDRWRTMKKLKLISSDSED
POT1 (human), sequence (Q9NUX5 whole entry): as the sequence (Q9NUX5 whole entry, chain 1 of 2) above
POT1/TPP1/GFP-TIN2/TRF1 complex, sequence (P54274 whole entry, looked up): as the sequence (P54274 whole entry) above
POT1/TPP1/GFP-TIN2/TRF1 complex, sequence (Q9NUX5 whole entry, looked up): as the sequence (Q9NUX5 whole entry, chain 1 of 2) above
TRF1/GFP-TIN2 complex, sequence (P54274 whole entry): as the sequence (P54274 whole entry) above
TRF1/GFP-TIN2 complex, sequence (Q9BSI4 1-352): as the sequence (Q9BSI4 1-352, chain 3 of 3) above
TPP1 (human), sequence (Q96AP0 whole entry): as the sequence (Q96AP0 whole entry, chain 2 of 3) above
TPP1 (natural protein), sequence (Q96AP0 whole entry): as the sequence (Q96AP0 whole entry, chain 2 of 3) above

In the data set with TPP1 (human), GFP-TIN2 (natural protein) returned a stoichiometry N (TIN2 per TPP1) of 1. In the data set with TRF1 (human) [1], this molecule showed a stoichiometry N (TIN2 per TRF1 dimer) of 2.

For “POT1/TPP1/GFP-TIN2 complex (from UniProt Q9NUX5 1-634)”, in data set [2], the stoichiometry N (POT1/TPP1/TIN2 per (TRF2/Rap1)2) was 1 and 2. The stoichiometry N (POT1/TPP1/GFP-TIN2 per TRF1 dimer) with TRF1 (human) [3] was 1 and 2; with TRF1 (human) [1], 1 and 2.

Broadly, the stoichiometry N is the number of molecules, sites or subunits per partner or assembly. Take “POT1/TPP1/GFP-TIN2/TRF1 complex (from UniProt Q9NUX5;P54274)”: the stoichiometry N in data set [4] turned out to be 1.

TPP1 (natural protein) had a stoichiometry N (TPP1 per POT1) in the data set with POT1 (human) of 1.

In turn, “TRF1 (from UniProt P54274 1-439) (natural protein)” had a stoichiometry N in the data set with TRF1 (human) [1] of 2.

As for “TRF1/GFP-TIN2 complex (from UniProt P54274;Q9BSI4)”, the stoichiometry N ((TRF1/GFP-TIN2)2 per (TRF2/Rap1)2) in data set [2] turned out to be 1.

Regarding GGTTAGGGTTAG (ssDNA) [5'-biotin-(GGTTAG)2], the binding result with POT1;TPP1N [5] is “binds”.

With GGTTAGGGTTAGGGTTAGGGTTAG (ssDNA) [5'-biotin-(GGTTAG)4], the binding result in the data set with POT1;TPP1;GFP-TIN2 and in the data set with POT1;TPP1N [6] was “binds” each time.
